Source: the MegaScale stability set (Tsuboyama et al. 2023)

B1: 2K2A (parent)
chain: ELREAFRLYDKEGNGYISTDVMREILAELDETLSSEDLDAMIDEIDADGSGTVDFEEFMGVMT

Variants of: B1
Assay: folding stability dG (cDNA display proteolysis); higher = more stable
Conditions: PBS, room temperature

| Variant | folding stability dG [kcal/mol] |
| --- | --- |
| ELREAFRLYDKEGNGYISTDVMREILAELDETLSSEDLDAMIDEIDADGSGTVDFDEFMGVMT [E56D] | 1.84 |
| ELREAFRLYDKEGNGYISTDVMREILAELDETLSSEDLDAMIDEIDADGSGTVDFCEFMGVMT [E56C] | 1.92 |
| ELREAFRLYDKEGNGYISTDVMREILAELDETLSSEDLDAMIDEIDADGSGTVDFAEFMGVMT [E56A] | 1.78 |
| ELREAFRLYDKEGNGYISTDVMREILAELDETLSSEDLDAMIDEIDADGSGTVDFGEFMGVMT [E56G] | 1.56 |
| ELREAFRLYDKEGNGYISTDVMREILAELDETLSSEDLDAMIDEIDADGSGTVDFFEFMGVMT [E56F] | 2.04 |
| ELREAFRLYDKEGNGYISTDVMREILAELDETLSSEDLDAMIDEIDADGSVTVDFEEFMGVMT [G51V] | 0.029 |
| ELREAFRLYDKEGNGYISTDVMREILAELDETLSSEDLDAMIDEIDADGSRTVDFEEFMGVMT [G51R] | 1.35 |
| ELREAFRLYDKEGNGYISTDVMREILAELDETLSSEDLDAMIDEIDADGSWTVDFEEFMGVMT [G51W] | 0.564 |
| ELREAFRLYDKEGNGYISTDVMREILAELDETLSSEDLDAMIDEIDADGSSTVDFEEFMGVMT [G51S] | 0.834 |
| ELREAFRLYDKEGNGYISTDVMREILAELDETLSSEDLDAMIDEIDADGSQTVDFEEFMGVMT [G51Q] | 1.01 |
| ELREAFRLYDKEGNGYISTDVMREILAELDETLSSEDLDAMIDEIDADGSYTVDFEEFMGVMT [G51Y] | 0.517 |
| ELREAFRLYDKEGNGYISTDVMREILAELDETLSSEDLDAMIDEIDADGSTTVDFEEFMGVMT [G51T] | 0.424 |
| ELREAFRLYDKEGNGYISTDVMREILAELDETLSSEDLDAMIDEIDADGSGTVDPEEFMGVMT [F55P] | -0.144 |
| ELREAFRLYDKEGNGYISTDVMREILAELDETLSSEDLDAMIDEIDADGSGTVDHEEFMGVMT [F55H] | 0.24 |
| ELREAFRLYDKEGNGYISTDVMREILAELDETLSSEDLDAMIDEIDADGSGTVDMEEFMGVMT [F55M] | 1.31 |
| ELREAFRLYDKEGNGYISTDVMREILAELDETLSSEDLDAMIDEIDADGSGTVDREEFMGVMT [F55R] | 0.375 |
| ELREAFRLYDKEGNGYISTDVMREILAELDETLSSEDLDAMIDEIDADGSGTVDIEEFMGVMT [F55I] | 1.47 |
| ELREAFRLYDKEGNGYISTDVMREILAELDETLSSEDLDAMIDEIDADGSGTVDLEEFMGVMT [F55L] | 1.66 |
| ELREAFRLYDKEGNGYISTDVMREILAELDETLSSEDLDAMIDEIDADGSGTVDTEEFMGVMT [F55T] | 0.148 |
| ELREAFRLYDKEGNGYISTDVMREILAELDETLSSEDLDAMIDEIDADGSGTVDGEEFMGVMT [F55G] | -0.263 |
| ELREAFRLYDKEGNGYISTDVMREILAELDETLSSEDLDAMIDEIDADGSGTVDDEEFMGVMT [F55D] | -0.867 |
| ELREAFRLYDKEGNGYISTDVMREILAELDETLSSEDLDAMIDEIDADGSGTVDSEEFMGVMT [F55S] | 0.161 |

| Variant | folding stability dG [kcal/mol] |
| --- | --- |
| ELREAFRLYDKEGNGYISTDVMREILAELDETLSSEDLDAMIDEIDADGSGTVDEEEFMGVMT [F55E] | 1.33 |
| ELREAFRLYDKEGNGYISTDVMREILAELDETLSSEDLDAMIDEIDADGSGTVDNEEFMGVMT [F55N] | -0.55 |
| ELREAFRLYDKEGNGYISTDVMREILAELDETLSSEDLDAMIDEIDADGSGTVDWEEFMGVMT [F55W] | 1.75 |
| ELREAFRLYDKEGNGYISTDVMREILAELDETLSSEDLDAMIDEIDADGSGTVDVEEFMGVMT [F55V] | 1.32 |
| ELREAFRLYDKEGNGYISTDVMREILAELDETLSSEDLDAMIDEIDADGSGTVDYEEFMGVMT [F55Y] | 1.88 |
| ELREAFRLYDKEGNGYISTDVMREILAELDETLSSEDLDAMIDEIDADGSGTVDAEEFMGVMT [F55A] | 0.686 |
| ELREAFRLYDKEGNGYISTDVMREILAELDETLSSEDLDAMIDEIDADGSGTVDQEEFMGVMT [F55Q] | 0.578 |
| ELREAFRLYDKEGNGYISTDVMREILAELDETLSSEDLDAMIDEIDADGSGTVDCEEFMGVMT [F55C] | 0.683 |
| ELREAFRLYDKEGNGYISTDVMREILAELDETLSSEDLDAMIDEIDADGSGTVDKEEFMGVMT [F55K] | 0.132 |
| ELREAFRLYDKEGNGYISTDVMREILAELDETLSSEDLDAMIDEIDADGSGRVDFEEFMGVMT [T52R] | 1.87 |
| ELREAFRLYDKEGNGYISTDVMREILAELDETLSSEDLDAMIDEIDADGSGWVDFEEFMGVMT [T52W] | 1.31 |
| ELREAFRLYDKEGNGYISTDVMREILAELDETLSSEDLDAMIDEIDADGSGMVDFEEFMGVMT [T52M] | 1.74 |
| ELREAFRLYDKEGNGYISTDVMREILAELDETLSSEDLDAMIDEIDADGSGNVDFEEFMGVMT [T52N] | 1.49 |
| ELREAFRLYDKEGNGYISTDVMREILAELDETLSSEDLDAMIDEIDADGSGGVDFEEFMGVMT [T52G] | 1.02 |
| ELREAFRLYDKEGNGYISTDVMREILAELDETLSSEDLDAMIDEIDADGSGCVDFEEFMGVMT [T52C] | 1.15 |
| ELREAFRLYDKEGNGYISTDVMREILAELDETLSSEDLDAMIDEIDADGSGSVDFEEFMGVMT [T52S] | 1.45 |
| ELREAFRLYDKEGNGYISTDVMREILAELDETLSSEDLDAMIDEIDADGSGLVDFEEFMGVMT [T52L] | 1.65 |
| ELREAFRLYDKEGNGYISTDVMREILAELDETLSSEDLDAMIDEIDADGSGHVDFEEFMGVMT [T52H] | 1.69 |
| ELREAFRLYDKEGNGYISTDVMREILAELDETLSSEDLDAMIDEIDADGSGVVDFEEFMGVMT [T52V] | 1.55 |
| ELREAFRLYDKEGNGYISTDVMREILAELDETLSSEDLDAMIDEIDADGSGFVDFEEFMGVMT [T52F] | 1.53 |
| ELREAFRLYDKEGNGYISTDVMREILAELDETLSSEDLDAMIDEIDADGSGDVDFEEFMGVMT [T52D] | 0.729 |
| ELREAFRLYDKEGNGYISTDVMREILAELDETLSSEDLDAMIDEIDADGSGKVDFEEFMGVMT [T52K] | 1.74 |

| Variant | folding stability dG [kcal/mol] |
| --- | --- |
| ELREAFRLYDKEGNGYISTDVMREILAELDETLSSEDLDAMIDEIDADGSGQVDFEEFMGVMT [T52Q] | 1.68 |
| ELREAFRLYDKEGNGYISTDVMREILAELDETLSSEDLDAMIDEIDADGSGEVDFEEFMGVMT [T52E] | 1.28 |
| ELREAFRLYDKEGNGYISTDVMREILAELDETLSSEDLDAMIDEIDADGSGPVDFEEFMGVMT [T52P] | -0.373 |
| ELREAFRLYDKEGNGYISTDVMREILAELDETLSSEDLDAMIDEIDADGSGIVDFEEFMGVMT [T52I] | 1.64 |
| ELREAFRLYDKEGNGYISTDVMREILAELDETLSSEDLDAMIDEIDADGSGAVDFEEFMGVMT [T52A] | 1.11 |
| ELREAFRLYDKEGNGYISTDVMREILAELDETLSSEDLDAMIDEIDADGSGYVDFEEFMGVMT [T52Y] | 1.52 |
| ELREAFRLYDKEGNGYISTDVMREILAELDETLSSEDLDAMIDEIDADGSGTVKFEEFMGVMT [D54K] | 1.57 |
| ELREAFRLYDKEGNGYISTDVMREILAELDETLSSEDLDAMIDEIDADGSGTVTFEEFMGVMT [D54T] | 2.36 |
| ELREAFRLYDKEGNGYISTDVMREILAELDETLSSEDLDAMIDEIDADGSGTVSFEEFMGVMT [D54S] | 2.43 |
| ELREAFRLYDKEGNGYISTDVMREILAELDETLSSEDLDAMIDEIDADGSGTVNFEEFMGVMT [D54N] | 2.26 |
| ELREAFRLYDKEGNGYISTDVMREILAELDETLSSEDLDAMIDEIDADGSGTVQFEEFMGVMT [D54Q] | 1.63 |
| ELREAFRLYDKEGNGYISTDVMREILAELDETLSSEDLDAMIDEIDADGSGTVYFEEFMGVMT [D54Y] | 2 |
| ELREAFRLYDKEGNGYISTDVMREILAELDETLSSEDLDAMIDEIDADGSGTVWFEEFMGVMT [D54W] | 1.72 |
| ELREAFRLYDKEGNGYISTDVMREILAELDETLSSEDLDAMIDEIDADGSGTVPFEEFMGVMT [D54P] | 1.14 |
| ELREAFRLYDKEGNGYISTDVMREILAELDETLSSEDLDAMIDEIDADGSGTVIFEEFMGVMT [D54I] | 1.27 |
| ELREAFRLYDKEGNGYISTDVMREILAELDETLSSEDLDAMIDEIDADGSGTVHFEEFMGVMT [D54H] | 1.68 |
| ELREAFRLYDKEGNGYISTDVMREILAELDETLSSEDLDAMIDEIDADGSGTVAFEEFMGVMT [D54A] | 1.78 |
| ELREAFRLYDKEGNGYISTDVMREILAELDETLSSEDLDAMIDEIDADGSGTVVFEEFMGVMT [D54V] | 1.38 |
| ELREAFRLYDKEGNGYISTDVMREILAELDETLSSEDLDAMIDEIDADGSGTVEFEEFMGVMT [D54E] | 1.33 |
| ELREAFRLYDKEGNGYISTDVMREILAELDETLSSEDLDAMIDEIDADGSGTVRFEEFMGVMT [D54R] | 1.73 |
| ELREAFRLYDKEGNGYISTDVMREILAELDETLSSEDLDAMIDEIDADGSGTVMFEEFMGVMT [D54M] | 1.76 |
| ELREAFRLYDKEGNGYISTDVMREILAELDETLSSEDLDAMIDEIDADGSGTVCFEEFMGVMT [D54C] | 1.51 |

| Variant | folding stability dG [kcal/mol] |
| --- | --- |
| ELREAFRLYDKEGNGYISTDVMREILAELDETLSSEDLDAMIDEIDADGSGTVLFEEFMGVMT [D54L] | 1.43 |
| ELREAFRLYDKEGNGYISTDVMREILAELDETLSSEDLDAMIDEIDADGSGTVFFEEFMGVMT [D54F] | 1.79 |
| ELREAFRLYDKEGNGYISTDVMREILAELDETLSSEDLDAMIDEIDADGSGTVGFEEFMGVMT [D54G] | 2.07 |
| ELREAFRLYDKEGNGYISTDVMREILAELDETLSSEDLDAMIDEIDADGSGTKDFEEFMGVMT [V53K] | -0.419 |
| ELREAFRLYDKEGNGYISTDVMREILAELDETLSSEDLDAMIDEIDADGSGTPDFEEFMGVMT [V53P] | -0.828 |
| ELREAFRLYDKEGNGYISTDVMREILAELDETLSSEDLDAMIDEIDADGSGTGDFEEFMGVMT [V53G] | -0.308 |
| ELREAFRLYDKEGNGYISTDVMREILAELDETLSSEDLDAMIDEIDADGSGTSDFEEFMGVMT [V53S] | 0.029 |
| ELREAFRLYDKEGNGYISTDVMREILAELDETLSSEDLDAMIDEIDADGSGTRDFEEFMGVMT [V53R] | -0.087 |
| ELREAFRLYDKEGNGYISTDVMREILAELDETLSSEDLDAMIDEIDADGSGTMDFEEFMGVMT [V53M] | 0.875 |
| ELREAFRLYDKEGNGYISTDVMREILAELDETLSSEDLDAMIDEIDADGSGTYDFEEFMGVMT [V53Y] | 0.679 |
| ELREAFRLYDKEGNGYISTDVMREILAELDETLSSEDLDAMIDEIDADGSGTIDFEEFMGVMT [V53I] | 2.37 |
| ELREAFRLYDKEGNGYISTDVMREILAELDETLSSEDLDAMIDEIDADGSGTLDFEEFMGVMT [V53L] | 1.58 |
| ELREAFRLYDKEGNGYISTDVMREILAELDETLSSEDLDAMIDEIDADGSGTQDFEEFMGVMT [V53Q] | -0.515 |
| ELREAFRLYDKEGNGYISTDVMREILAELDETLSSEDLDAMIDEIDADGSGTADFEEFMGVMT [V53A] | 0.162 |
| ELREAFRLYDKEGNGYISTDVMREILAELDETLSSEDLDAMIDEIDADGSGTWDFEEFMGVMT [V53W] | 0.916 |
| ELREAFRLYDKEGNGYISTDVMREILAELDETLSSEDLDAMIDEIDADGSGTFDFEEFMGVMT [V53F] | 1.07 |
| ELREAFRLYDKEGNGYISTDVMREILAELDETLSSEDLDAMIDEIDADGSGTHDFEEFMGVMT [V53H] | 0.004 |
| ELREAFRLYDKEGNGYISTDVMREILAELDETLSSEDLDAMIDEIDADGSGTTDFEEFMGVMT [V53T] | -0.067 |
| ELREAFRLYDKEGNGYISTDVMREILAELDETLSSEDLDAMIDEIDADGSGTCDFEEFMGVMT [V53C] | 0.799 |
